Measured values published in the supplement of paper PMC7877785.
± gives the uncertainty stated by the source.

Test: self-splicing fitness, log relative to wild type (ln ratio); higher = more splicing; Tetrahymena group I intron in knt gene, E. coli kanamycin selection, DiMSum; sequences stand for … in CUCUCU…GGAGGGAAAAGUUAUCAGGCAUGCACCUGGUAGCUAGUCUUUAAACCAAUAGAUUGCAUCGGUUUAAAAGGCAAGACCGUCAAAUUGCGGGAAAGGGGUCAACAGCCGUUCAGUACCAAGUCUCAGGGGAAACUUUGAGAUGGCCUUGCAAAGGGUAUGGUAAUAAGCUGACGGACAUGGUCCUAACCACGCAGCCAAGUCCUAAGUCAACAGAUCUUCUGUUGAUAUGGAUGCAGUUCACAGACUAAAUGUCGGUCGGGGAAGAUGUAUUCUUCUCAUAAGAUAUAGUCGGACCUCUCCUUAAUGGGAGCUAGCGGAUGAAGUGAUGCAACACUGGAGCCGCUGGGAACUAAUUUGUAUGCGAAAGUAUAUUGAUUAGUUUUGGAGUACUCGUGGUCG
Summary of the method: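 Library with all eight P1ex-region intron nucleotides randomised, intron inside the knt kanamycin-resistance gene on pET-22b(+), in E. coli BL21(DE3). Cells grew overnight at 37°C or 30°C on LB agar with or without 25 μg/mL kanamycin (plus 100 μg/mL carbenicillin, 50 μM IPTG, 0.2% rhamnose), in six replicate transformations. Pooled colonies were amplicon-sequenced on Illumina HiSeq 2500. DiMSum fitness is the error-weighted combination of wild-type-normalised replicate fold changes, kanamycin versus none.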

Sequence	self-splicing fitness (ln) (30 °C)	self-splicing fitness (ln) (37 °C)
UUAAAGCAAUAUUACGUAAU	-2.43 ± 0.12	-1.91 ± 0.14
UUAAAGCAAUAUUACGUCUU	-1.23 ± 0.082	-0.988 ± 0.12
UUAAAGCAAUAUUACGUGAU	-3.01 ± 0.15	-1.15 ± 0.14
UUAAAGCAAUAUUACGUUUU	-3.84 ± 0.2	-2.27 ± 0.18
UUACAGCAAUAUUACGAAGU	-3.35 ± 0.29	-2.7 ± 0.36
UUACAGCAAUAUUACGAGAA	-1.83 ± 0.2	-1.59 ± 0.2
UUACAGCAAUAUUACGAUAC	-3.01 ± 0.32	-3.46 ± 0.39
UUACAGCAAUAUUACGAUGA	-0.445 ± 0.06	0.596 ± 0.078
UUACAGCAAUAUUACGAUGG	-1.16 ± 0.062	-0.0316 ± 0.086
UUACAGCAAUAUUACGAUUG	-1.76 ± 0.091	-0.796 ± 0.1
UUACAGCAAUAUUACGAUUU	-1.09 ± 0.059	-0.22 ± 0.084
UUACAGCAAUAUUACGCAAA	-1.83 ± 0.17	-0.688 ± 0.12
UUACAGCAAUAUUACGCGCA	-0.521 ± 0.11	-0.892 ± 0.12
UUACAGCAAUAUUACGCGUG	-1.17 ± 0.081	-0.156 ± 0.093
UUACAGCAAUAUUACGGAAU	-3.68 ± 0.2	-2.7 ± 0.17
UUACAGCAAUAUUACGGCCU	-0.981 ± 0.17	-1.23 ± 0.26
UUACAGCAAUAUUACGGGAG	-1.23 ± 0.071	-0.858 ± 0.077
UUACAGCAAUAUUACGGUUA	-0.071 ± 0.058	0.344 ± 0.07
UUACAGCAAUAUUACGGUUG	-0.8 ± 0.054	-0.338 ± 0.07
UUACAGCAAUAUUACGUAGG	-1.12 ± 0.066	-1.19 ± 0.096
UUACAGCAAUAUUACGUCUU	-1.49 ± 0.069	-0.819 ± 0.09
UUACAGCAAUAUUACGUGCU	-3.78 ± 0.2	-2.26 ± 0.23
UUACAGCAAUAUUACGUGGA	-1.88 ± 0.095	-1.41 ± 0.094
UUAGAGCAAUAUUACGAAUU	-1.77 ± 0.28	
UUAGAGCAAUAUUACGACAU	-1.894 ± 0.018	-1.19 ± 0.036

Sequence	self-splicing fitness (ln) (30 °C)	self-splicing fitness (ln) (37 °C)
UUAGAGCAAUAUUACGACUC	-2.73 ± 0.39	
UUAGAGCAAUAUUACGAGAU		-2.03 ± 0.43
UUAGAGCAAUAUUACGAGCG	-0.362 ± 0.17	-0.824 ± 0.25
UUAGAGCAAUAUUACGAGGU		-2.29 ± 0.35
UUAGAGCAAUAUUACGAUUU	-2.08 ± 0.18	-1.88 ± 0.26
UUAGAGCAAUAUUACGCAAA	-1.89 ± 0.14	-0.682 ± 0.16
UUAGAGCAAUAUUACGCCAU	-2.82 ± 0.32	
UUAGAGCAAUAUUACGCGAU	-3.09 ± 0.19	-2.19 ± 0.24
UUAGAGCAAUAUUACGCGCG	-0.351 ± 0.16	0.871 ± 0.18
UUAGAGCAAUAUUACGCGGG	-1.91 ± 0.13	-0.56 ± 0.13
UUAGAGCAAUAUUACGCUCU	-3.64 ± 0.47	-1.85 ± 0.3
UUAGAGCAAUAUUACGCUGC		-2.29 ± 0.37
UUAGAGCAAUAUUACGCUGG	-1.75 ± 0.11	-0.227 ± 0.18
UUAGAGCAAUAUUACGGAAG	-2.58 ± 0.33	
UUAGAGCAAUAUUACGGAUA	-2.47 ± 0.31	
UUAGAGCAAUAUUACGGCAC	-3.59 ± 0.38	-1.95 ± 0.38
UUAGAGCAAUAUUACGGCAG	-1.01 ± 0.18	-0.707 ± 0.24
UUAGAGCAAUAUUACGGCUU	-2.83 ± 0.21	-1.79 ± 0.22
UUAGAGCAAUAUUACGUAAC	-2.76 ± 0.39	-1.73 ± 0.49
UUAGAGCAAUAUUACGUAGC	-2.12 ± 0.24	
UUAGAGCAAUAUUACGUCCG	-2.38 ± 0.24	-1.99 ± 0.34
UUAGAGCAAUAUUACGUGAC	-3.13 ± 0.18	-2.64 ± 0.24
UUAGAGCAAUAUUACGUUAU	-3.14 ± 0.16	-2.14 ± 0.19
UUAGAGCAAUAUUACGUUCU	-4.07 ± 0.27	-2.92 ± 0.3
UUAGAGCAAUAUUACGUUGA	-2.03 ± 0.1	-0.538 ± 0.12

Sequence	self-splicing fitness (ln) (30 °C)	self-splicing fitness (ln) (37 °C)
UUAUAGCAAUAUUACGACAA	-0.403 ± 0.12	-0.279 ± 0.11
UUAUAGCAAUAUUACGACGG	-0.906 ± 0.11	-0.144 ± 0.16
UUAUAGCAAUAUUACGAUGC	-2.99 ± 0.34	-1.93 ± 0.32
UUAUAGCAAUAUUACGCCGA	-0.888 ± 0.2	0.064 ± 0.25
UUAUAGCAAUAUUACGGAUU	-3.1 ± 0.43	-2.02 ± 0.29
UUAUAGCAAUAUUACGGCCG	-0.763 ± 0.48	-0.565 ± 0.37
UUAUAGCAAUAUUACGGCGC	-0.766 ± 0.18	-0.308 ± 0.17
UUAUAGCAAUAUUACGGGAC	-2.91 ± 0.31	-2.4 ± 0.34
UUAUAGCAAUAUUACGGGGA	-1.89 ± 0.13	-1.38 ± 0.15
UUAUAGCAAUAUUACGGGUA	-2.85 ± 0.2	-1.65 ± 0.19
UUAUAGCAAUAUUACGGGUC	-2.3 ± 0.32	-2.47 ± 0.41
UUAUAGCAAUAUUACGGGUU	-3.8 ± 0.26	-1.13 ± 0.15
UUAUAGCAAUAUUACGGUAA	-1.31 ± 0.17	-0.924 ± 0.17
UUAUAGCAAUAUUACGUACA	-1.06 ± 0.16	-0.0284 ± 0.16
UUAUAGCAAUAUUACGUCUA	-0.963 ± 0.15	-0.336 ± 0.11
UUAUAGCAAUAUUACGUGAC	-3.22 ± 0.22	-0.826 ± 0.22
UUAUAGCAAUAUUACGUGCA	-2.37 ± 0.23	-1.07 ± 0.2
UUAUAGCAAUAUUACGUUAC	-4.01 ± 0.43	-3.56 ± 0.37
UUAUAGCAAUAUUACGUUUA	-2.29 ± 0.16	-0.505 ± 0.12
UUCAAGCAAUAUUACGACAC	-2.8 ± 0.28	-1.39 ± 0.18
UUCAAGCAAUAUUACGAUCA	-0.845 ± 0.082	-0.189 ± 0.093
UUCAAGCAAUAUUACGCAAC		-1.43 ± 0.47
UUCAAGCAAUAUUACGCCAG	0.732 ± 0.48	0.119 ± 0.33
UUCAAGCAAUAUUACGCGAA	-3.01 ± 0.18	-1.47 ± 0.13
UUCAAGCAAUAUUACGCUCA	-1.42 ± 0.16	0.0916 ± 0.2

Sequence	self-splicing fitness (ln) (30 °C)	self-splicing fitness (ln) (37 °C)
UUCAAGCAAUAUUACGCUUC	-3.09 ± 0.22	-2.8 ± 0.44
UUCAAGCAAUAUUACGGAUG	-2.34 ± 0.14	-1.7 ± 0.14
UUCAAGCAAUAUUACGGCCU	-2.42 ± 0.17	-0.267 ± 0.15
UUCAAGCAAUAUUACGGCGC	-1.42 ± 0.14	-1.47 ± 0.2
UUCAAGCAAUAUUACGGGUU	-2.38 ± 0.12	-0.76 ± 0.12
UUCAAGCAAUAUUACGGUCA	-0.929 ± 0.097	0.00589 ± 0.098
UUCAAGCAAUAUUACGUAAC		-2.22 ± 0.42
UUCAAGCAAUAUUACGUAAU	-2.49 ± 0.087	-1.56 ± 0.1
UUCAAGCAAUAUUACGUACU	-1.3 ± 0.13	-0.455 ± 0.15
UUCAAGCAAUAUUACGUGCA	-0.545 ± 0.047	-0.00601 ± 0.065
UUCAAGCAAUAUUACGUGGC	-3.8 ± 0.19	-1.83 ± 0.13
UUCAAGCAAUAUUACGUUAU	-4.39 ± 0.21	-2.3 ± 0.15
UUCCAGCAAUAUUACGAAAC		-2.29 ± 0.35
UUCCAGCAAUAUUACGAAGU		-1.47 ± 0.32
UUCCAGCAAUAUUACGAUAG	-2.58 ± 0.18	-1.4 ± 0.16
UUCCAGCAAUAUUACGAUAU	-3.13 ± 0.25	-0.723 ± 0.16
UUCCAGCAAUAUUACGAUUU	-2.34 ± 0.088	-0.783 ± 0.1
UUCCAGCAAUAUUACGCAUC	-3.6 ± 0.23	-2.2 ± 0.17
UUCCAGCAAUAUUACGCCAU	-3.3 ± 0.19	-2.82 ± 0.25
UUCCAGCAAUAUUACGCCUU	-2.28 ± 0.1	-0.957 ± 0.096
UUCCAGCAAUAUUACGCUAA	-0.0987 ± 0.083	-0.376 ± 0.084
UUCCAGCAAUAUUACGGAGG	-3.51 ± 0.17	-1.03 ± 0.1
UUCCAGCAAUAUUACGGAGU	-4.4 ± 0.42	
UUCCAGCAAUAUUACGGCAU	-1.79 ± 0.085	-0.66 ± 0.089
UUCCAGCAAUAUUACGGGGA		-2.87 ± 0.29
